{"source": "patent CN113735969A", "about": "(INST MILITARY MEDICINE ACADEMY MILITARY SCIENCES PLA, dated 2021)", "key": {"SARS-CoV-2野生型病毒的S蛋白": {"biological_target": "SARS-CoV-2野生型病毒的S蛋白 (SARS-CoV-2, UniProt P0DTC2 14-1273)", "assay": "cell-based or functional assay"}, "SARS-CoV-2 WT RBD蛋白": {"biological_target": "SARS-CoV-2 WT RBD蛋白 (SARS-CoV-2, UniProt P0DTC2 319-541)"}}}
{"binder": "全人源抗SARS-CoV-2单克隆抗体ZWD12 (antibody, V domains shown) VH: EVQLVESGGGLVQPGGTLRLSCVASGFSFSNYWMSWVRQAPGKGLEWVANIKQDGSETHYVDSVKGRFTISRDNAKNSLYLQMNSLRADDTAVYFCVKDRTDWELIRGYFGHWGQGTQITVSS VL: DIVMTQTPSSLSLSPGDRATLSCRASENIINYLAWYQQRPGQSPRLLIYDASNRATGIPARFSGSGSGTDFTLTISSLEPEDFAVYYCQQRIIWPPYTFGQGTKVDIKR", "values": [{"measurement": "假病毒中和 EC50 (luciferase, HEK293T cells)", "setting": "SARS-CoV-2野生型病毒的S蛋白", "result": 0.00586, "unit": "µg/mL"}, {"measurement": "真病毒中和 EC50 (Vero E6 cells, crystal violet)", "setting": "SARS-CoV-2野生型病毒的S蛋白", "result": 0.103, "unit": "µg/mL"}, {"measurement": "Kd", "setting": "SARS-CoV-2 WT RBD蛋白", "result": 0.356, "unit": "nM"}, {"measurement": "koff", "setting": "SARS-CoV-2 WT RBD蛋白", "result": 0.000167, "unit": "s⁻¹"}, {"measurement": "kon", "setting": "SARS-CoV-2 WT RBD蛋白", "result": 468000, "unit": "M⁻¹ s⁻¹"}]}
